This data set concerns the target T1, GlxR-A131T A131T (Corynebacterium glutamicum WT (ATCC 13032?)) (UniProt Q79VI7).
T1 sequence: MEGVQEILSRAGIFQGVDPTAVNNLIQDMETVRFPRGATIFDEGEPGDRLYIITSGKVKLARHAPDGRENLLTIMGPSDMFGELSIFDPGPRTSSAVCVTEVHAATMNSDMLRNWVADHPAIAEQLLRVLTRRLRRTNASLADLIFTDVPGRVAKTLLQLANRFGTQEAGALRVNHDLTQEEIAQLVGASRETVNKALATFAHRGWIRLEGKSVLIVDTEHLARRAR
The experiment in a line: EMSA. To be noted: EMSA: 100 ng DNA, 200 nM protein, with or without 0.2 mM cAMP, 30 min, room temperature, 10% native PAGE; binding buffer as in Bussmann et al. 2009 (not …). (Mobility shift assays separate free from complexed probe on a gel.)

Regarding “CTTCCTGGCGAAATGTCCGTCAAATTGTGAACCCCTTCACACCTTTGGTTAAAAGTCACTGCCCACAAGTGACTGAACCTGGCAGCGACCTCATGAATTGTTTGAAAAACATTTTTTTTGGGCATGAAAAGGGGATACAG (double strand) [ctaD promoter fragment]”, the binding result is listed as “binds”.
For “GGTGGAAATATCTTCGTGGGTTTCGTTTTTAGGGGCGTCAAATGTCTTTCAACTGCAACGATATGCCCGAATCCTCAGGTGGAATACCTAAAGTCTAGGCAATTGGTGTATGCCACGTCACAGACCATCAAC (double strand) [ctaCF promoter fragment]” the value was “binds”.

The record behind these values is paper PMC7026483.
